Among the data in paper PMC10557143, “Promoter R-Loops Recruit U2AF1 to Modulate Its Phase Separation and RNA Splicing” are Kd and binding signal values, retold here.

As usually defined, the Kd is the free concentration of one partner at which half of the binding sites on the other are occupied at equilibrium, for simple one-to-one binding.

Residue numbers refer to the chain shown, from its start.

Data set [1] deals with T1, U2AF1 (human, UniProt Q01081 1-240).
T1 sequence: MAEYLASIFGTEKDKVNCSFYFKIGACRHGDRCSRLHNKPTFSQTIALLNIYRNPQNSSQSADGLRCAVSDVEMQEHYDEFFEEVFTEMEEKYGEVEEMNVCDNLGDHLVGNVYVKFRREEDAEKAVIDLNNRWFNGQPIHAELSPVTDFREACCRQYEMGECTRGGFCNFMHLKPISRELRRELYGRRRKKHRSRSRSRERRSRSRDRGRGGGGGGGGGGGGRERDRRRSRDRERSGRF
Briefly: fluorescence anisotropy; 100 mM K+; Anisotropy: 10 nM probe, 10 mM Tris-HCl pH 7.5, 1 mM EDTA, 100 mM KCl, 0.1 mM DTT, 10 ug/mL BSA, 30 min on ice; EMSA same but Tris pH 8.0, 6% native PAGE in 1x. The note with it: protein: recombinant, tags: His6 (pET30a), label: 5' TAMRA.

Data set [2] has as its target T1, U2AF1. The data set can be described thus: fluorescence anisotropy; Anisotropy: 10 nM probe, 10 mM Tris-HCl pH 7.5, 1 mM EDTA, 100 mM KCl, 0.1 mM DTT, 10 ug/mL BSA, 30 min on ice; EMSA same but Tris pH 8.0, 6% native PAGE in 1x. The conditions noted are these: protein: recombinant, tags: His6 (pET30a). For orientation: Polarisation of emitted light reports the rotation of a fluorescent probe.

The next data set concerns the target T2, U2AF1-ZF2 (human, UniProt Q01081 149-176).
T2 chain: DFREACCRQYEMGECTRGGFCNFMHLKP
Described as above. The note with it: protein: recombinant; tags: His6 (pET30a); label: 5' TAMRA; parallel intramolecular G4.

B1: hTel_M4 (ssDNA)
DNA: AAAGGGTTAGTGTTAGTGTTAGGGAA
Consider B1, for which the Kd in the data set with U2AF1 [1] was determined as 60 ± 6 nM.

B2: cMYC G4-R-loop (mixed)
?: GCGAGGGGCGGCCGGAGAGC
DNA 1: CCGCTCCGGCAGCTCAGGCCCTGGCGCTCTCCGGCCGCCCCTCGCCCGCCCGGGCTCCTCCTCCTGTGCC
DNA 2: GGCACAGGAGGAGGAGTTTTTTCTGAGGGTGGGGAGGGTGGGGAAGGCATTTTTTGAGCTGCCGGAGCGG
Consider B2, for which the dissociation constant (Kd) in the data set with U2AF1 [2] (label: 5' Cy3 on RNA strand, R-loop bubble: strand 1 RNA, strand 2 template DNA, strand 3 displaced DNA, some slow-migrating putative intermolecular G4) was determined as 3.5 nM.

B3: cMYC M4-R-loop (mixed)
?: GCGAGGGGCGGCCGGAGAGC
DNA 1: B2 DNA 1
DNA 2: B2 DNA 2 with G32A, G37T
With B3, the Kd in the data set with U2AF1 [2] (label: 5' Cy3 on RNA strand, R-loop bubble: strand 1 RNA, strand 2 template DNA, strand 3 displaced DNA) was 13 nM.

B4: cKIT_M4 (ssDNA)
DNA: AGGGAGGGCTCTGTGAGGAGGG
On to B4, for which the equilibrium dissociation constant (Kd) in the data set with U2AF1 [1] worked out at 19 ± 4 nM.

B5: hTel_G4 (structured_DNA)
DNA: AAAGGGTTAGGGTTAGGGTTAGGGAA
In the case of B5, the Kd in the data set with U2AF1 [1] (hybrid-type intramolecular G4) stood at 50 ± 6 nM.

B6: cMYC_M4 (ssDNA)
DNA: TGAGGGTGAGGAGTGTGGGGAAGG
For the molecule B6, the dissociation constant Kd in the data set with U2AF1 [1] amounted to 22 ± 1 nM.

B7: cKIT_G4 (structured_DNA)
DNA: AGGGAGGGCGCTGGGAGGAGGG
Turning to B7, the Kd in the data set with U2AF1 [1] (parallel intramolecular G4) came out at 15 ± 2 nM.

B8: 2KF8_G4 (structured_DNA)
DNA: GGGTTAGGGTTAGGGTTAGGGT
As to B8, the dissociation constant Kd with U2AF1 [1] (antiparallel intramolecular G4) was 9 ± 1 nM.

B9: U2AF1_RNA Motif (AG motif) (ssRNA)
RNA: UUUUAGGU
For the molecule B9, the Kd in the data set with U2AF1 [2] (label: 5' Cy3) is 350 nM.

B10: 2KF8_M4 (ssDNA)
DNA: GGGTTAGTGTTAGTGTTAGGGT
With B10, the Kd with U2AF1 [1] worked out at 10 ± 2 nM.

B11: RNA/DNA hybrid (DNA:RNA)
?: GCGAGGGGCGGCCGGAGAGC
DNA: GCTCTCCGGCCGCCCCTCGC
Regarding B11, in the data set with U2AF1 [2] (label: 5' Cy3 on RNA strand, blunt, strand 1 RNA, strand 2 DNA), the dissociation constant (Kd) worked out at 6.7 nM.

B12: cMYC_G4 (structured_DNA)
DNA: TGAGGGTGGGGAGGGTGGGGAAGG
In the case of B12, the Kd with U2AF1 [1] (parallel intramolecular G4) amounted to 10.8 ± 0.9 nM. In the data set with U2AF1-ZF2, the binding signal is > 10 fold lower affinity than full length.
